Experiment [1] addresses T1, human SETD3 (residues 1-497) (human, UniProt Q86TU7 1-497).
T1 construct: The methods describe one recombinant human SETD3 with an N-terminal His6-tag without giving limits; Whether that protocol and tag apply to the 1-497 construct used for ITC and crystals is surmised; In ITC and in the crystals SETD3 was pre-incubated with SAH or sinefungin (SFG) at 1:10; also called SETD3_(1-497); histidine methyltransferase SETD3
T1 sequence (looked up): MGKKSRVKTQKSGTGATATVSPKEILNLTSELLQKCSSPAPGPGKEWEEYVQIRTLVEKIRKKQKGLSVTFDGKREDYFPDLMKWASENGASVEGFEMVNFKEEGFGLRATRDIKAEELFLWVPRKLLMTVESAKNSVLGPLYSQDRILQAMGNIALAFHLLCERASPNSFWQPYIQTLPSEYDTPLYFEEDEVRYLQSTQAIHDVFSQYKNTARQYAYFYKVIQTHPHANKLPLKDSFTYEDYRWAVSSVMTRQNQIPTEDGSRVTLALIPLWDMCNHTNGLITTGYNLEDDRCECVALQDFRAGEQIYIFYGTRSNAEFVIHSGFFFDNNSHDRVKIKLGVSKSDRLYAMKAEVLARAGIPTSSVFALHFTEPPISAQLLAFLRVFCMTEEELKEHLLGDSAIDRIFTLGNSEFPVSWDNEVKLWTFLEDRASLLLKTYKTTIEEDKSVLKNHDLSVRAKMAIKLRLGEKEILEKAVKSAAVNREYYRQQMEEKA
Kind of experiment: ITC; peptide (0.5-1 mM) titrated into SETD3 (0.05 mM) pre-incubated with sinefungin (SFG) (1:10); 25 °C; 20 mM Tris-HCl pH 8.0, 150 mM NaCl; one set of binding sites model. The note with it: both partners purified. (ITC needs no label: the signal is the heat of the interaction.)

Experiment [2] deals with T1, human SETD3 (residues 1-497). Kind of experiment: ITC; peptide (0.5-1 mM) titrated into SETD3 (0.05 mM) pre-incubated with SAH (1:10); 25 °C; 20 mM Tris-HCl pH 8.0, 150 mM NaCl; one set of binding sites model. The following applies: both partners purified.

Ends that are not written are not given here.

B1: β-actin peptide, residues 66-81, with His73 (βA-His73) (peptide, UniProt P60709 66-81, looked up)
peptide: TLKYPIEHGIVTNWDD-NH2
notes: β-actin, human, 16-mer, residues 66-81; Made on Rink amide resin, so a C-terminal amide is surmised; also called wild type βA-His73; wild type β-actin peptide; source: synthetic peptide (microwave-assisted SPPS on Rink amide resin, RP-HPLC)
A word on the Kd: it is the equilibrium constant for the complex coming apart. Regarding B1, the Kd came out at 1000 nM in experiment [1] and 700 nM in experiment [2].

The values above are taken from doi:10.1101/2021.12.30.474520, “Substrate Specificity for Human Histidine Methyltransferase SETD3” (bioRxiv, 2021).
